Laboratory results: patent US20090053807A1 (Novo Nordisk A/S, priority 1998, published 2009)
One block for each molecule: values may come before it.

How the values were obtained:
[1] = biological target: insulin receptor construct transfected into 32D cells (Homo sapiens, UniProt P06213); assay: IR autophosphorylation assay in IR transfected 32D cells (ELISA); conditions: MBP fusion peptides, FIG. 30
MCF-7 cells = assay: MCF-7 cell proliferation assay, agonist format; format: cell-based, human; conditions: MCF-7 and MiaPaCa cell proliferation (Tables 27-28)

B2: D112-12-RP30-IGF: dimer peptide (Site 1-Site 1) (peptide)
chain: ADYKDCWARPCGDAANFYDWFVQQASKKGGSGGSGGSGGSSFYSCLESLVNGGAERSDGQWEGCRAAAGAPVPYPDPLEPRPG
IGF-1R agonist activity (MCF-7 cells): IGF-1R agonist activity

B3: RP30-IGF-12-D112: dimer peptide (Site 1-Site 1) (peptide)
chain: ADYKDSFYSCLESLVNGGAERSDGQWEGCRGGSGGSGGSGGSCWARPCGDAANFYDWFVQQASKKAAAGAPVPYPDPLEPRPG
IGF-1R agonist activity (MCF-7 cells): IGF-1R agonist activity

Continued, values first:

stimulation of autophosphorylation of IR [1]: active
B1: H2C-9aa-H2C: MBP fusion, H2C dimer peptide with 9 amino acid linker (protein)
chain: NNNNLGIEGRISEFIEGRAQPAMAFHENFYDWFVRQVSGGSGGSGGSFHENFYDWFVRQVSAAAGAPVPYPDPLEPRAA
modifications: left off: large carriers; small tags and cut ends

stimulation of autophosphorylation of IR [1]: active
B4: H2C-3aa-H2C: MBP fusion, H2C dimer peptide (Site 1-Site 1) with 3 amino acid linker (protein)
chain: NNNNLGIEGRISEFIEGRAQPAMAFHENFYDWFVRQVSGGSFHENFYDWFVRQVSAAAGAPVPYPDPLEPRAA
modifications: left off: large carriers; small tags and cut ends
